Assay results reported in publication PMC10115798, “Identification of D-arabinan-degrading enzymes in mycobacteria” (Nature Communications, 2023).

Columns and labels:
Assay in all cases: SEC-MALS; SEC-LS: size exclusion chromatography coupled light scattering, Agilent MDS system, Agilent BioSEC 5 1000 Å or GE Superdex 200 column; detector offsets calibrated with BSA, concentrations by refractive index
[1] = target: Dg_(GH172a) (HMPREF9455_02467), DUF2961 family GH172 exo-D-arabinofuranosidase from Dysgonomonas gadei (Dysgonomonas gadei) (UniProt F5IZF0)
[2] = target: Dg_(GH172b) (HMPREF9455_02471), DUF2961 family GH172 exo-D-arabinofuranosidase from Dysgonomonas gadei (Dysgonomonas gadei) (UniProt F5IZF4)
[3] = target: Dg_(GH172c) (HMPREF9455_02479), DUF2961 family GH172 exo-D-arabinofuranosidase from Dysgonomonas gadei (Dysgonomonas gadei) (UniProt F5IZG2)
[4] = target: Myc_(GH172) (GII36_05205), DUF2961 homolog from Candidatus Mycosynbacter amalyticus (Candidatus Mycosynbacter amalyticus)
[5] = target: the molecule itself

Molecule “Dg_(GH172a) (HMPREF9455_02467), DUF2961 family GH172 exo-D-arabinofuranosidase from Dysgonomonas gadei (from UniProt F5IZF0 1-386) (enzyme)” has a stoichiometry N [1] of 12.

Molecule “Dg_(GH172b) (HMPREF9455_02471), DUF2961 family GH172 exo-D-arabinofuranosidase from Dysgonomonas gadei (from UniProt F5IZF4 1-643) (enzyme)” has a stoichiometry N [2] of 2.

“Dg_(GH172c) (HMPREF9455_02479), DUF2961 family GH172 exo-D-arabinofuranosidase from Dysgonomonas gadei (from UniProt F5IZG2 1-402) (enzyme)” gave a stoichiometry N [3] of 6.

In the case of “Myc_(GH172) (GII36_05205), DUF2961 homolog from Candidatus Mycosynbacter amalyticus (enzyme)”, the stoichiometry N [4] is reported as 3.

B1: Noc_(GH172) (O3I_017420), DUF2961 family GH172 enzyme from Nocardia brasiliensis (enzyme, UniProt K0EX55 1-342, looked up)
chain: MTPPRRSELWLLDDTRTRSVSAENPTGAPGGGARATTGTGAHAARLLGPGWKISPSIVLGDGETATLADVSGPGVLRHCWLTTDRAALRELTLRMYWDDAAEPAIDVPLGDFFCNGWDELALVDSEMVVVAPAGGLNSYWPMPFRRRARITLENHCGRSVPVYYQITYGEEDVPGEAGYLHARWSRSAPLGSPAVHTLLDTGPARGRYVGTYLAIRPGAPRWWGEGEMKFYLDGDDEYPTLCGTGTEDYFGGAWNFDMDGKYRTYSTAYLGLPQALPADEIYQAHQRFGMYRWHVHDPICFHRELRVTVQGLGWRDSDTYLPLEDAEIATTVWWYQEVPPSG
notes: O3I_017420, DUF2961 homologue, Nocardia brasiliensis; codon-optimized gene bought from Twist Biosciences; also called GH172Noc; source: E. coli BL21-DE3, purified (IMAC, size exclusion chromatography)
With B1 the “stoichiometry N” value [5] was 3.
